According to patent publication US20240293316:

Assays:
[1] = biological target: T1, NPD (micellar nanoparticles of PPAD, DEX-containing PPA with D-MMP peptide) (not fully specified)
T1 chain: GPLGLAGGERDG

[2] = biological target: T2, NPL (micellar nanoparticles of PPAL, DEX-containing PPA with L-MMP peptide) (not fully specified)
T2 chain: GPLGLAGGERDG

[3] = biological target: T3, NPR (micellar nanoparticles of PPAR, DEX-containing PPA with random peptide) (not fully specified)
T3 chain: GGSGSGSGWGERDGS

B1: thermolysin (protein)
chain: ITGTSTVGVGRGVLGDQKNINTTYSTYYYLQDNTRGNGIFTYDAKYRTTLPGSLWADADNQFFASYDAPAVDAHYYAGVTYDYYKNVHNRLSYDGNNAAIRSSVHYSQGYNNAFWNGSQMVYGDGDGQTFIPLSGGIDVVAHELTHAVTDYTAGLIYQNESGAINEAISDIFGTLVEFYANKNPDWEIGEDVYTPGISGDSLRSMSDPAKYGDPDHYSKRYTGTQDNGGVHINSGIINKAAYLISQGGTHYGVSVVGIGRDKLGKIFYRALTQYLTPTSNFSQLRAAAVQSATDLYGSTSQEVASVKQAFDAVGVK
nanoparticle cleavage experiment (TEM after thermolysin treatment, 1 µM thermolysin : 100 µM polymer, 24 hours at 37° C.) [1]: maintained their nanoparticle morphology
nanoparticle cleavage experiment (TEM after thermolysin treatment, 1 µM thermolysin : 100 µM polymer, 24 hours at 37° C.) [2]: underwent cleavage induced aggregation
nanoparticle cleavage experiment (TEM after thermolysin treatment, 1 µM thermolysin : 100 µM polymer, 24 hours at 37° C.) [3]: maintained their nanoparticle morphology
